We go through three molecules from publication doi:10.1101/2025.10.27.684836 (bioRxiv, 2025).

For data set [1], the target named is His-MBP-SALL4(QID-ZFC4) fusion protein (mouse). Description: SEC-MALS. In general terms: In gel filtration, larger molecules generally elute earlier.
The data set “SEC-MALS” concerns the molecule itself. Description: SEC-MALS.
A further data set deals with T1, SALL4 QID-ZFC4 (UniProt Q8BX22 201-240+870-940, internal_change).
T1 sequence: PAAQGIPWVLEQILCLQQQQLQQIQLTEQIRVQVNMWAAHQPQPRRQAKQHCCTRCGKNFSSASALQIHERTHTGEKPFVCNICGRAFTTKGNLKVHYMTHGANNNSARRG
Description: SPR. In general terms: In SPR one partner is held on a chip, and binding of the other changes the refractive index at the surface.

“His-MBP-SALL4(QID-ZFC4) fusion protein (domain or fragment)”: in data set [1], the stoichiometry N was found to be 4.

In the case of GAEAPMAPMPAAQGIPWVLEQILCLQQQQLQQIQLTEQIRVQVNMW (domain or fragment, mouse, UniProt Q8BX22 192-237, looked up) [recombinant SALL4 QID (192-237) peptide], in “SEC-MALS”, the “stoichiometry N” value turned out to be 4.

B1: SPR probe, single ATATTA motif (dsDNA)
DNA 1: AGCAGGCCTAATATCGCAC
DNA 2: GTGCGATATTAGGCCTGCT
In the case of B1, in the data set with SALL4 QID-ZFC4, the binding result was “binds”.

Usually stoichiometry N stands for the number of molecules, sites or subunits per partner or assembly.
